The values that follow come from patent US20180291096A1 (Janssen / Centocor, published 2018).

For experiment [1], the target named is T1, recombinant human IL-23 (hrIL-23), produced at Centocor (human, UniProt P29460 23-328).
T1 construct: p19-p40 heterodimer; also called rhIL-23; huIL-23
T1 sequence 1: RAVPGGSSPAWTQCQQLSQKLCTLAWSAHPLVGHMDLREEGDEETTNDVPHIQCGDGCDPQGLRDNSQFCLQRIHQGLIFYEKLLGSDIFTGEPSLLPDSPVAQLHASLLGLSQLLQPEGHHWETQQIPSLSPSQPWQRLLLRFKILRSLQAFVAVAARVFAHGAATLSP
T1 sequence 2: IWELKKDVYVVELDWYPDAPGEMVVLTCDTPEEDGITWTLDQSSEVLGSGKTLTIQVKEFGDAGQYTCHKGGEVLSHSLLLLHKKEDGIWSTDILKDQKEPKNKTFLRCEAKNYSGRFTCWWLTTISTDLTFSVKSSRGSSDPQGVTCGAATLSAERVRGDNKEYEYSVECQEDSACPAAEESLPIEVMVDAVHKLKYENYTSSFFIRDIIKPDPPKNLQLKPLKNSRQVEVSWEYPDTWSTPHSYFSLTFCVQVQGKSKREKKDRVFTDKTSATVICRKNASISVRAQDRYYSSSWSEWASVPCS
Kind of experiment: SET.

Experiment [2] concerns the target T1, recombinant human IL-23 (hrIL-23), …. The experiment in a line: hrIL-23/hIL-23R competition assay.
For experiment [3] the target is unchanged. The experiment in a line: IL-23/IL-23R competition assay.
The target is the same in experiment [4]. Kind of experiment: Biacore, Fab capture.
Experiment [5] shares this target. The experiment in a line: IL-23/IL-23R competition assay. This is another data set of the same source.
Experiment [6] shares this target. Kind of experiment: SET. This is another data set of the same source.

B1: MOR04083 Fab (Fab, V domains shown)
VH: QVQLVQSGAEVKKPGSSVKVSCKASGGTFSNYAISWVRQAPGQGLEWMGGIIPMFGYANYAQKFQGRVTITADESTSTAYMELSSLRSEDTAVYYCARDIYAGMDVWGQGTLVTVSS
VL: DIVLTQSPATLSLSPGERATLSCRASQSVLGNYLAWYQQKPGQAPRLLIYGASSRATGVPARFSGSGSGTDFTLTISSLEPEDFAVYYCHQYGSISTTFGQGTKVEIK
notes: Fab
Turning to B1, the figures for the dissociation constant Kd in experiment [1] and in experiment [4] were 1.6 nM and 16 nM, respectively. Besides, the IC50 in experiment [2] was determined as 4.6 nM; in experiment [3] it was 7.1 nM.

B2: MOR04205 Fab (Fab, V domains shown)
VH: QVQLVQSGAEVKKPGESLKISCKGSGYSFTNYWISWVRQAPGKGLEWMGWIRPGDSDTRYSPSFEGQVTISADKSISTAYLQWSSLKASDTAMYYCARHYYGMDYWGQGTLVTVSS
VL: DIVLTQPPSVSGAPGQRVTISCSGSSSNIGSYYVNWYQQLPGTAPKLLIYGNTHRPSGVPDRFSGSKSGTSASLAITGLQSEDEADYYCQTYASLGPGEVFGGGTKLTVL
notes: Fab
On to B2, for which the IC50 in experiment [2] worked out at 38 nM. In experiment [4], the Kd is 140 nM.

B3: MOR04649 Fab (Fab, V domains shown)
VH: QVQLVQSGAEVKKPGESLKISCKGSGYSFSNYWIGWVRQMPGKGLEWMGIIDPSNSYTNYSPSFQGQVTISADKSISTAYLQWSSLKASDTAMYYCARWYYKPFDVWGQGTLVTVSS
VL: DIVLTQPPSVSGAPGQRVTISCTGSSSNIGSGYDVHWYQQLPGTAPKLLIYGNSKRPSGVPDRFSGSKSGTSASLAITGLQSEDEADYYCSSWTPSSVVFGGGTKLTVL
notes: Fab
With B3, the Kd in experiment [1] was found to be 1.1 nM; in experiment [4], 7 nM. Moreover, the IC50 came out at 0.2 nM in experiment [2] and 1.2 nM in experiment [3].

B4: MOR04217 Fab (Fab, V domains shown)
VH: QVQLVESGGGLVQPGGSLRLSCAASGFTFSSYWITWVRQAPGKGLEWVSYISSSGSSTYYADSVKGRFTISRDNSKNTLYLQMNSLRAEDTAVYYCARGTFWSFGNYFANWGQGTLVTVSS
VL: DIVLTQSPATLSLSPGERATLSCRASQSIFYNLAWYQQKPGQAPRLLIYGASNRATGVPARFSGSGSGTDFTLTISSLEPEDFATYYCQQYSSEPVTFGQGTKVEIK
notes: Fab
In the case of B4, in experiment [2], the half-inhibitory concentration (IC50) turned out to be 16 nM. In addition, the Kd in experiment [4] turned out to be 41 nM.

B5: MOR04190 Fab (Fab, V domains shown)
VH: QVQLVQSGAEVKKPGSSVKVSCKASGGTFSSNYISWVRQAPGQGLEWMGGIIPIFGHANYAQKFQGRVTITADESTSTAYMELSSLRSEDTAVYYCARSKKGMYGGWTYPLMMFDLWGQGTLVTVSS
VL: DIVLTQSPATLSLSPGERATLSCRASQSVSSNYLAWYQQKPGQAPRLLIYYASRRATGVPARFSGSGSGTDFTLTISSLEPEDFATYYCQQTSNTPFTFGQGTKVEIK
notes: Fab
As for B5, the Kd in experiment [1] turned out to be 4.4 nM; in experiment [4] it was 11 nM. In addition, the results for the IC50 in experiment [2] and in experiment [3] were 4.8 nM and 1.3 nM, respectively.

B6: MOR05047 Fab (Fab, V domains shown)
VH: QVQLVESGGGLVQPGGSLRLSCAASGFTFSSFGMSWVRQAPGKGLEWVSNIEHKYLGYATSYAASVKGRFTISRDNSKNTLYLQMNSLRAEDTAVYYCARYWGTPYLMQFDNWGQGTLVTVSS
VL: DIALTQPASVSGSPGQSITISCTGTSSDVGGYNSVSWYQQHPGKAPKLMIYSVSSRPSGVSNRFSGSKSGNTASLTISGLQAEDEADYYCSSYDTNKPLVVFGGGTKLTVL
notes: Fab
Consider B6, for which the IC50 in experiment [5] came to 0.13 nM. The Kd in experiment [6] worked out at 0.036 nM.

B7: MOR04658 Fab (Fab, V domains shown)
VH: QVQLVESGGGLVQPGGSLRLSCAASGFTFSSFGMSWVRQAPGKGLEWVSNISSSGSSTYYADSVKGRFTISRDNSKNTLYLQMNSLRAEDTAVYYCARYWGTPYLMQFDNWGQGTLVTVSS
VL: DIALTQPASVSGSPGQSITISCTGTSSDVGGYNSVSWYQQHPGKAPKLMIYSVSSRPSGVSNRFSGSKSGNTASLTISGLQAEDEADYYCSSYDTNKPLVVFGGGTKLTVL
notes: Fab
B7: the IC50 in experiment [5] stood at 14 nM; in experiment [2], 0.7 nM. The figures for the Kd in experiment [4] and in experiment [6] were 11 nM and 4.3 nM, respectively.

B8: MOR05063 Fab (Fab, V domains shown)
VH: QVQLVESGGGLVQPGGSLRLSCAASGFTFSSFGMSWVRQAPGKGLEWVSNISSSGSSTYYADSVKGRFTISRDNSKNTLYLQMNSLRAEDTAVYYCARYWGTPYLMQFDNWGQGTLVTVSS
VL: DIALTQPASVSGSPGQSITISCTGTSSDVGGYNSVSWYQQHPGKAPKLMIYSVSSRPSGVSNRFSGSKSGNTASLTISGLQAEDEADYYCGSWDPIFSYEVFGGGTKLTVL
notes: Fab
Turning to B8, the IC50 in experiment [5] was determined as 0.32 nM. The Kd in experiment [6] was determined as 0.069 nM.

B9: MOR05055 Fab (Fab, V domains shown)
VH: QVQLVESGGGLVQPGGSLRLSCAASGFTFSSFGMSWVRQAPGKGLEWVSNIEHKYLGYATVYAASVKGRFTISRDNSKNTLYLQMNSLRAEDTAVYYCARYWGTPYLMQFDNWGQGTLVTVSS
VL: DIALTQPASVSGSPGQSITISCTGTSSDVGGYNSVSWYQQHPGKAPKLMIYSVSSRPSGVSNRFSGSKSGNTASLTISGLQAEDEADYYCSSYDTNKPLVVFGGGTKLTVL
notes: Fab
Take B9: in experiment [5], the 50% inhibitory concentration (IC50) was found to be 0.79 nM. Also, the Kd in experiment [6] turned out to be 0.029 nM.

B10: MOR05061 Fab (Fab, V domains shown)
VH: QVQLVESGGGLVQPGGSLRLSCAASGFTFSSFGMSWVRQAPGKGLEWVSNISSSGSSTYYADSVKGRFTISRDNSKNTLYLQMNSLRAEDTAVYYCARYWGTPYLMQFDNWGQGTLVTVSS
VL: DIALTQPASVSGSPGQSITISCTGTSSDVGGYNSVSWYQQHPGKAPKLMIYSVSSRPSGVSNRFSGSKSGNTASLTISGLQAEDEADYYCSSYYFYLQRIVFGGGTKLTVL
notes: Fab
For the molecule B10, in experiment [5], the concentration for half-maximal inhibition (IC50) turned out to be 1.25 nM. In addition, the Kd in experiment [6] was 0.058 nM.

B11: MOR05060 Fab (Fab, V domains shown)
VH: QVQLVESGGGLVQPGGSLRLSCAASGFTFSSFGMSWVRQAPGKGLEWVSNISSSGSSTYYADSVKGRFTISRDNSKNTLYLQMNSLRAEDTAVYYCARYWGTPYLMQFDNWGQGTLVTVSS
VL: DIALTQPASVSGSPGQSITISCTGTSSDVGGYNSVSWYQQHPGKAPKLMIYSVSSRPSGVSNRFSGSKSGNTASLTISGLQAEDEADYYCGSYDVYGRFYVFGGGTKLTVL
notes: Fab
B11: the IC50 in experiment [5] stood at 1 nM. In addition, the Kd in experiment [6] turned out to be 0.142 nM.

B12: MOR05050 Fab (Fab, V domains shown)
VH: QVQLVESGGGLVQPGGSLRLSCAASGFTFSSFGMSWVRQAPGKGLEWVSSIEHKYTGYTTYYAAPVKGRFTISRDNSKNTLYLQMNSLRAEDTAVYYCARYWGTPYLMQFDNWGQGTLVTVSS
VL: DIALTQPASVSGSPGQSITISCTGTSSDVGGYNSVSWYQQHPGKAPKLMIYSVSSRPSGVSNRFSGSKSGNTASLTISGLQAEDEADYYCSSYDTNKPLVVFGGGTKLTVL
notes: Fab
As to B12, in experiment [5], the IC50 was determined as 0.89 nM. Further, in experiment [6], the Kd amounted to 0.023 nM.

B13: MOR05056 Fab (Fab, V domains shown)
VH: QVQLVESGGGLVQPGGSLRLSCAASGFTFSSFGMSWVRQAPGKGLEWVSSIEHKYLSYATYYAAGVKGRFTISRDNSKNTLYLQMNSLRAEDTAVYYCARYWGTPYLMQFDNWGQGTLVTVSS
VL: DIALTQPASVSGSPGQSITISCTGTSSDVGGYNSVSWYQQHPGKAPKLMIYSVSSRPSGVSNRFSGSKSGNTASLTISGLQAEDEADYYCSSYDTNKPLVVFGGGTKLTVL
notes: Fab
In the case of B13, the IC50 in experiment [5] was determined as 0.52 nM. Besides, the Kd in experiment [6] came to 0.065 nM.

B14: MOR05062 Fab (Fab, V domains shown)
VH: QVQLVESGGGLVQPGGSLRLSCAASGFTFSSFGMSWVRQAPGKGLEWVSNISSSGSSTYYADSVKGRFTISRDNSKNTLYLQMNSLRAEDTAVYYCARYWGTPYLMQFDNWGQGTLVTVSS
VL: DIALTQPASVSGSPGQSITISCTGTSSDVGGYNSVSWYQQHPGKAPKLMIYSVSSRPSGVSNRFSGSKSGNTASLTISGLQAEDEADYYCQTYYFSYSGPVFGGGTKLTVL
notes: Fab
As for B14, the IC50 in experiment [5] amounted to 1.34 nM. Further, in experiment [6], the Kd stood at 0.098 nM.

B15: MOR05048 Fab (Fab, V domains shown)
VH: QVQLVESGGGLVQPGGSLRLSCAASGFTFSSFGMSWVRQAPGKGLEWVSNIEHKFMGYTTYYAAGVKGRFTISRDNSKNTLYLQMNSLRAEDTAVYYCARYWGTPYLMQFDNWGQGTLVTVSS
VL: DIALTQPASVSGSPGQSITISCTGTSSDVGGYNSVSWYQQHPGKAPKLMIYSVSSRPSGVSNRFSGSKSGNTASLTISGLQAEDEADYYCSSYDTNKPLVVFGGGTKLTVL
notes: Fab
In the case of B15, in experiment [5], the IC50 amounted to 0.1 nM. Further, the Kd in experiment [6] stood at 0.02 nM.

B16: MOR05052 Fab (Fab, V domains shown)
VH: QVQLVESGGGLVQPGGSLRLSCAASGFTFSSFGMSWVRQAPGKGLEWVSSIEHKYLSYTTFYAASVKGRFTISRDNSKNTLYLQMNSLRAEDTAVYYCARYWGTPYLMQFDNWGQGTLVTVSS
VL: DIALTQPASVSGSPGQSITISCTGTSSDVGGYNSVSWYQQHPGKAPKLMIYSVSSRPSGVSNRFSGSKSGNTASLTISGLQAEDEADYYCSSYDTNKPLVVFGGGTKLTVL
notes: Fab
For the molecule B16, the IC50 in experiment [5] amounted to 0.58 nM. Also, the Kd in experiment [6] worked out at 0.01 nM.

For orientation: Kd means the free concentration of one partner at which half of the binding sites on the other are occupied at equilibrium, for simple one-to-one binding. What is called IC50 is the concentration at which inhibition is half-maximal.
